Where a chain is given by its changes, count along the chain named. Numbers in names are those of the source.
B1: AGT WT (enzyme, human)
chain: MASHKLLVTPPKALLKPLSIPNQLLLGPGPSNLPPRIMAAGGLQMIGSMSKDMYQIMDEIKEGIQYVFQTRNPLTLVISGSGHCALEAALVNVLEPGDSFLVGANGIWGQRAVDIGERIGARVHPMTKDPGGHYTLQEVEEGLAQHKPVLLFLTHGESSTGVLQPLDGFGELCHRYKCLLLVDSVASLGGTPLYMDRQGIDILYSGSQKALNAPPGTSLISFSDKAKKKMYSRKTKPFSFYLDIKWLANFWGCDDQPRMYHHTIPVISLYSLRESLALIAEQGLENSWRQHREAAAYLHGRLQALGLQLFVKDPALRLPTVTTVAVPAGYDWRDIVSYVIDHFDIEIMGGLGPSTGKVLRIGLLGCNATRENVDRVTEALRAALQHCPKKKL
B2: AGT LM (enzyme, human)
chain: B1 chain with P11L, I340M
B3: AGT LM-p.I244T p.S81A (enzyme, human)
chain: B1 chain with P11L, S81A, I244T, I340M
B4: AGT WT p.S81D (enzyme, human)
chain: B1 chain with S81D
B5: AGT WT p.S81A (enzyme, human)
chain: B1 chain with S81A
B6: AGT LM-p.I244T p.S81D (enzyme, human)
chain: B1 chain with P11L, S81D, I244T, I340M
B7: AGT LM-p.G170R (enzyme, human)
chain: B1 chain with P11L, G170R, I340M
B8: AGT LM p.S81D (enzyme, human)
chain: B1 chain with P11L, S81D, I340M
B9: AGT LM-p.I244T (enzyme, human)
chain: B1 chain with P11L, I244T, I340M
B10: AGT LM-p.G170R p.S81A (enzyme, human)
chain: B1 chain with P11L, S81A, G170R, I340M
B11: AGT LM-p.G170R p.S81D (enzyme, human)
chain: B1 chain with P11L, S81D, G170R, I340M
B12: AGT LM p.S81A (enzyme, human)
chain: B1 chain with P11L, S81A, I340M

Target: the molecule itself
Experiment: dynamic light scattering

Stoichiometry N, 2:
B1
B2
B3
B4
B5
B6
B7
B8
B9
B10
B11
B12

Source: article doi:10.1101/2025.04.14.648764 (bioRxiv, 2025)
